B1: proCDF1 probe (P1 site) (dsDNA)
DNA 1: ACGACGTTGGCCGGCGGCGGCGAATTCACGGCGGCTAAACGAGTTTT
DNA 2: AAAACTCGTTTAGCCGCCGTGAATTCGCCGCCGCCGGCCAACGTCGT
B2: proCDF3 probe (P2 site) (dsDNA)
DNA 1: CGTCAACTCGCCGGCGGCGACTTCGTCGGA
DNA 2: TCCGACGAAGTCGCCGCCGGCGAGTTGACG

Target: SlERF4-9-GST (Solanum lycopersicum (tomato), UniProt A0A3Q7G811 1-264)
Experiment: EMSA; Beyotime Chemiluminescent EMSA Kit; 100x cold probe as competitor; buffer, salt, pH and temperature not stated
Conditions: protein: recombinant; tags: GST (pGEX6P-1); label: biotin on both strands (3' end); blunt

Sequence of SlERF4-9-GST (A0A3Q7G811 entry or part of it): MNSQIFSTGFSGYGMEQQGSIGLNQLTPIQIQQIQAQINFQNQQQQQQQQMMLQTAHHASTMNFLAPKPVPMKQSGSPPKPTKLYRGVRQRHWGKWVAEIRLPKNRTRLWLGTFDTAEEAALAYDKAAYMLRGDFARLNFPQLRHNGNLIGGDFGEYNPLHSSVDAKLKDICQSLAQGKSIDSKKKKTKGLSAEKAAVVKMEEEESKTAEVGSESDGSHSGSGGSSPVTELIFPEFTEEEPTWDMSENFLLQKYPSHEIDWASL

Binder	binding result
B1	binds
B2	binds

From article PMC11985770, “The SlERF4-9-SlCDF1/3-SlAEC2/SlPIN5 module regulates tomato root morphogenesis”
